Measurements from PMC10952495, “Glycosylation increases active site rigidity leading to improved enzyme stability and turnover” (The Febs Journal, 2023).

Substrate: Nc1ccccc1N
Experiment: purified protein
Format: biochemical, Armoracia rusticana
Conditions: 25.0 °C
[1] = holo enzyme 0.5 nM, 3% v/v H2O2, 50 mM Tris pH 8.0, 298 K
[2] = holo enzyme 10 nM, 3% v/v H2O2, 20 mM Bis-Tris pH 7.0, 298 K

B1: pHRP (plant horseradish peroxidase, glycosylated) (Armoracia rusticana) (protein)
chain: QLTPTFYDNSCPNVSNIVRDTIVNELRSDPRIAASILRLHFHDCFVNGCDASILLDNTTSFRTEKDAFGNANSARGFPVIDRMKAAVESACPRTVSCADLLTIAAQQSVTLAGGPSWRVPLGRRDSLQAFLDLANANLPAPFFTLPQLKDSFRNVGLNRSSDLVALSGGHTFGKNQCRFIMDRLYNFSNTGLPDPTLNTTYLQTLRGLCPLNGNLSALVDFDLRTPTIFDNKYYVNLEEQKGLIQSDQELFSSPNATDTIPLVRSFANSTQTFFNAFVEAMDRMGNITPLTGTQGQIRLNCRVVNSNS
notes: native from horseradish root, 8 N-linked glycans, clinical diagnostic grade (Ortho Clinical Diagnostics), with and without C-terminal serine, monomer
[1]
  Km: 920 ± 100 µM
  kcat: 917 ± 53 s⁻¹
  kcat/Km: 1e+06 M⁻¹ s⁻¹

B2: rHRP (recombinant horseradish peroxidase, nonglycosylated) (Armoracia rusticana) (protein)
chain: B1 chain
[2]
  Km: 980 ± 130 µM
  kcat: 86.2 ± 4.7 s⁻¹
  kcat/Km: 88200 M⁻¹ s⁻¹
